Experiments:
[1] = target: Human recombinant FGF8b (fibroblast growth factor-8b) (human)
FGF1 = FGF1 (UniProt P05230); assay: SPR; BIAcore X-100; FGF8b (20 μg/ml in 10 mM sodium acetate, pH 6.0) or other FGFs (10 mM sodium acetate at optimal pH) immobilised on a CM5 sensor chip by EDC/NHS; peptide injected (ARPCA 8 μM to 2000 μM), 4 min at 30 μl/min, 10 min dissociation, in HBS; equilibrium values fitted with the Langmuir equation for monovalent binding
FGF2 = FGF2 (UniProt P09038); assay: as above
[2] = target: Human recombinant FGF8b (fibroblast growth factor-8b) (human); assay: as above

- Kd (FGF1): 227 µM
- Kd (FGF2): 1700 µM
- Kd [2]: 278 µM
Binder: Ac-ARPCA-NH2 [Ac-ARPCA-NH2, acetylated pentapeptide corresponding to PTX3(100-104)]
- inhibition of HUVEC proliferation in response to 30 ng/ml FGF8b (viable cell counts at 48 h) [1]: 30 µM

From PMC4537050, “A long pentraxin-3-derived pentapeptide for the therapy of FGF8b-driven steroid hormone-regulated cancers” (Oncotarget, 2015)
